In US20100120171A1:

Columns and labels:
[1] = target: recombinant fragment of human VE-cadherin extracellular region, CAD 1-4 fragment (Asp48-Glu478, preceded by Met), SEQ ID NO: 4 (human) (UniProt P33151); test: sandwich ELISA, BV9 capture, rabbit polyclonal detection; CAD1-4 at 10 ng/mL
[2] = target: recombinant fragment of human VE-cadherin extracellular region, CAD 1-4 fragment (Asp48-Glu478, preceded by Met), SEQ ID NO: 4 (human) (UniProt P33151); test: sandwich ELISA, BV9 capture, rabbit polyclonal detection; CAD1-4 at 1.25 ng/mL
[3] = target: recombinant fragment of human VE-cadherin extracellular region, CAD 1-4 fragment (Asp48-Glu478, preceded by Met), SEQ ID NO: 4 (human) (UniProt P33151); test: sandwich ELISA, BV9 capture, rabbit polyclonal detection; CAD1-4 at 10 ng/mL; second replicate
[4] = target: recombinant fragment of human VE-cadherin extracellular region, CAD 1-4 fragment (Asp48-Glu478, preceded by Met), SEQ ID NO: 4 (human) (UniProt P33151); test: sandwich ELISA, BV9 capture, rabbit polyclonal detection; CAD1-4 at 1.25 ng/mL; mean OD minus OD at 0 ng/mL
[5] = target: recombinant fragment of human VE-cadherin extracellular region, CAD 1-4 fragment (Asp48-Glu478, preceded by Met), SEQ ID NO: 4 (human) (UniProt P33151); test: sandwich ELISA, BV9 capture, rabbit polyclonal detection; CAD1-4 at 10 ng/mL; mean OD minus OD at 0 ng/mL
[6] = target: recombinant fragment of human VE-cadherin extracellular region, CAD 1-4 fragment (Asp48-Glu478, preceded by Met), SEQ ID NO: 4 (human) (UniProt P33151); test: sandwich ELISA, BV9 capture, rabbit polyclonal detection; CAD1-4 at 0.63 ng/mL; mean OD minus OD at 0 ng/mL
[7] = target: recombinant fragment of human VE-cadherin extracellular region, CAD 1-4 fragment (Asp48-Glu478, preceded by Met), SEQ ID NO: 4 (human) (UniProt P33151); test: sandwich ELISA, BV9 capture, rabbit polyclonal detection; CAD1-4 at 10 ng/mL; first replicate
[8] = target: recombinant fragment of human VE-cadherin extracellular region, CAD 1-4 fragment (Asp48-Glu478, preceded by Met), SEQ ID NO: 4 (human) (UniProt P33151); test: sandwich ELISA, BV9 capture, rabbit polyclonal detection; CAD1-4 at 0.63 ng/mL; second replicate
[9] = target: recombinant fragment of human VE-cadherin extracellular region, CAD 1-4 fragment (Asp48-Glu478, preceded by Met), SEQ ID NO: 4 (human) (UniProt P33151); test: sandwich ELISA, BV9 capture, rabbit polyclonal detection; CAD1-4 at 2.5 ng/mL; second replicate
[10] = target: recombinant fragment of human VE-cadherin extracellular region, CAD 1-4 fragment (Asp48-Glu478, preceded by Met), SEQ ID NO: 4 (human) (UniProt P33151); test: sandwich ELISA, BV9 capture, rabbit polyclonal detection; CAD1-4 at 5 ng/mL
[11] = target: recombinant fragment of human VE-cadherin extracellular region, CAD 1-4 fragment (Asp48-Glu478, preceded by Met), SEQ ID NO: 4 (human) (UniProt P33151); test: sandwich ELISA, BV9 capture, rabbit polyclonal detection; CAD1-4 at 0.63 ng/mL
[12] = target: recombinant fragment of human VE-cadherin extracellular region, CAD 1-4 fragment (Asp48-Glu478, preceded by Met), SEQ ID NO: 4 (human) (UniProt P33151); test: sandwich ELISA, BV9 capture, rabbit polyclonal detection; CAD1-4 at 1.25 ng/mL; remark: listed apart in the source
[13] = target: recombinant fragment of human VE-cadherin extracellular region, CAD 1-4 fragment (Asp48-Glu478, preceded by Met), SEQ ID NO: 4 (human) (UniProt P33151); test: sandwich ELISA, BV9 capture, rabbit polyclonal detection; CAD1-4 at 10 ng/mL; mean OD minus OD at 0 ng/mL; remark: listed apart in the source
[14] = target: recombinant fragment of human VE-cadherin extracellular region, CAD 1-4 fragment (Asp48-Glu478, preceded by Met), SEQ ID NO: 4 (human) (UniProt P33151); test: sandwich ELISA, BV9 capture, rabbit polyclonal detection; CAD1-4 at 5 ng/mL; mean OD minus OD at 0 ng/mL
[15] = target: recombinant fragment of human VE-cadherin extracellular region, CAD 1-4 fragment (Asp48-Glu478, preceded by Met), SEQ ID NO: 4 (human) (UniProt P33151); test: as above; remark: listed apart in the source
[16] = target: recombinant fragment of human VE-cadherin extracellular region, CAD 1-4 fragment (Asp48-Glu478, preceded by Met), SEQ ID NO: 4 (human) (UniProt P33151); test: sandwich ELISA, BV9 capture, rabbit polyclonal detection; CAD1-4 at 10 ng/mL; remark: listed apart in the source
[17] = target: recombinant fragment of human VE-cadherin extracellular region, CAD 1-4 fragment (Asp48-Glu478, preceded by Met), SEQ ID NO: 4 (human) (UniProt P33151); test: sandwich ELISA, BV9 capture, rabbit polyclonal detection; CAD1-4 at 2.5 ng/mL
[18] = target: recombinant fragment of human VE-cadherin extracellular region, CAD 1-4 fragment (Asp48-Glu478, preceded by Met), SEQ ID NO: 4 (human) (UniProt P33151); test: SDS-PAGE and western blot of the purified fragment with BV9
[19] = target: circulating (soluble) human VE-cadherin, 90 kDa form, in human serum or plasma (human) (UniProt P33151); test: western blot of healthy human serum diluted 1/500, BV9 tested from 0.02 to 1 µg/mL
[20] = target: recombinant fragment of human VE-cadherin extracellular region, CAD 1-4 fragment (Asp48-Glu478, preceded by Met), SEQ ID NO: 4 (human) (UniProt P33151); test: sandwich ELISA, BV9 capture, rabbit polyclonal detection; CAD1-4 at 2.5 ng/mL; first replicate

mean OD [1]: 1.95 OD | OD1 [2]: 0.867 OD | OD2 [2]: 0.829 OD | mean OD [2]: 0.848 OD | OD [3]: 2 OD | Corr. OD [4]: 0.143 OD | Corr. OD [5]: 1.06 OD | Corr. OD [6]: 0.087 OD | OD [7]: 1.9 OD | OD [8]: 0.899 OD | OD [9]: 1.09 OD | mean OD [10]: 1.4 OD | mean OD [11]: 0.937 OD | mean OD [12]: 1 OD | Corr. OD [13]: 1.06 OD | Corr. OD [14]: 0.556 OD | Corr. OD [15]: 0.512 OD | OD1 [16]: 1.76 OD | OD2 [16]: 1.76 OD | mean OD [16]: 1.76 OD | mean OD [17]: 1.17 OD | lowest detectable quantity [18]: 1 ng | lowest mAb concentration giving detection [19]: 0.02 µg/mL | mAb concentration at signal plateau [19]: 0.1 to 1 µg/mL | OD [20]: 1.26 OD
Substance: anti-VEcadherin mouse mAb, clone BV9 (Abcam, product datasheet ab7047) (antibody)
